Key:
[1] = biological target: T1, interaction between IRS1 and DABD p110α E545K (Homo sapiens, UniProt P35568); test: Co-IP from lysate of cells co-transfected with Myc-IRS1 and FLAG-tagged ΔABD p110α E545K, incubated with stapled peptide; format: binding
T1 construct: expressed in transfected cells
T1 sequence (P35568 1-1242): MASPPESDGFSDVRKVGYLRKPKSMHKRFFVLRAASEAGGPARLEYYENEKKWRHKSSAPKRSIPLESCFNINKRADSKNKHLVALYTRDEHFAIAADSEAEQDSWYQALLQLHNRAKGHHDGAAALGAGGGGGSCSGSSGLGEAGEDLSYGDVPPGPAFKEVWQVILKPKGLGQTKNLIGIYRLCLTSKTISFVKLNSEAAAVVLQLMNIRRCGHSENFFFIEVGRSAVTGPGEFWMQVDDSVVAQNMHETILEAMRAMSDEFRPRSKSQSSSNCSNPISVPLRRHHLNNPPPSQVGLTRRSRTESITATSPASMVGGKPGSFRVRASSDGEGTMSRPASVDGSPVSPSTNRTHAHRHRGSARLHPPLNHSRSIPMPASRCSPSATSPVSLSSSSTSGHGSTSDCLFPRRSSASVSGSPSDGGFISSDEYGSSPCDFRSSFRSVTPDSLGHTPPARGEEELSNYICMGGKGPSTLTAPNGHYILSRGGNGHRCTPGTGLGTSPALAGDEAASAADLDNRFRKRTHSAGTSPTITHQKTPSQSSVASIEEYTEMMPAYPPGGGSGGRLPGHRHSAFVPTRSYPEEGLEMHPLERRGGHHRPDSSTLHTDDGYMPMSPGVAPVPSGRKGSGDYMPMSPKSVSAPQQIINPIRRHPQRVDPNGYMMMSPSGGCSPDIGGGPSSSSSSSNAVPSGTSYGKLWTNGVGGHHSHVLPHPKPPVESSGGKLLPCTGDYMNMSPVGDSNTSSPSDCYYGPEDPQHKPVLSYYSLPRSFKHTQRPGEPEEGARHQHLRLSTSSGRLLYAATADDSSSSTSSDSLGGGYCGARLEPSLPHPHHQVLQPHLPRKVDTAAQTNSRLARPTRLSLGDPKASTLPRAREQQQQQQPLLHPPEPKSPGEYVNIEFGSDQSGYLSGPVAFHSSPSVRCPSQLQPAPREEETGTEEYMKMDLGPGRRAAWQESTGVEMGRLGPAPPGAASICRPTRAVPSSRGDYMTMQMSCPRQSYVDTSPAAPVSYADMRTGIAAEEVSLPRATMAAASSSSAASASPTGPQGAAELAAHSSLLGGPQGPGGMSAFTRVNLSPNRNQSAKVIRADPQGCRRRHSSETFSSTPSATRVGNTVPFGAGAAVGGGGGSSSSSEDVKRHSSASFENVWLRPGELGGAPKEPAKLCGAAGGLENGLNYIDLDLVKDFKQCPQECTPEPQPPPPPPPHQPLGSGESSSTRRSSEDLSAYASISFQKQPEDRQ
Method: FIGS. 3(A-M) illustrate: (A, B) Mapping peptides (P3, SEQ ID NO: 1; P4 SEQ ID NO: 2; P5, SEQ ID NO: 3; P6, SEQ ID NO: 4) derived from mutant p110α that inhibit interaction between IRS1 and p110α E545K. The indicated peptides were added into cell lysates made from the p110α E545K 3×FLAG KI cells. Cell lysates were immunoprecipitated with beads conjugated with anti-FLAG antibodies and then blotted with anti-IRS1 antibodies. (C) Immunoblots of cell lysates made from the p110α E545K 3×FLAG KI cells. Cell lysates were immunoprecipitated with beads conjugated with anti-FLAG antibodies and then blotted with the indicated antibodies. […] (J, K) Immunoblot and graph of purified recombinant p110α E545K mutant proteins mixed with the indicated components and quantified using an in vitro lipid kinase assay. […]
(§1) For Co-immunoprecipitation (Co-IP), cells were harvested, washed with PBS, and then lysed in IP buffer (50 mMTris [pH 7.4], 150 mMNaCl, 5 mMEDTA [pH 8.0], 0.5% NP40, 1 mM PMSF, complete Protease Inhibitor Cocktail tablet [Roche]; supplemented with phosphatase inhibitors [1 mM Na3VO4, 20 mM NaF, 0.1 mM b-glycerophosphate, 20 mM sodium pyrophosphate] when necessary). […] Lysates were then cleared by centrifugation (14,000 rpm, 10 min) and protein concentration in supernatants was determined with a BCA protein assay kit (Pierce, Rockford, Ill.). […]

IRS1 phosphorylation = test: Immunoblot of treated cells, IRS1 phosphorylation; format: cell-based, human
Method: (§2) FIG. 4(A-F) illustrate: (A) Schematic diagram of linear and stapled WT and mutant peptides derived from p110α (SEQ ID NOs: 5, 6, 7 and 8). (B) Immunoblots of cell lysates immunoprecipitated with beads conjugated with anti-FLAG antibodies and then blotted with the indicated antibodies. Linear or stapled WT and mutant peptide were added into culture medium of the p110α E545K 3×FLAG KI cells for 16 hr. (C) Immunoblots of cell lysates immunoprecipitated with anti-p110α antibodies and then blotted with the indicated antibodies. Vaco481 CRC cells were treated with the stapled mutant peptides at the indicated concentration. (D) Immunoblots of cell lysates blotted with the indicated antibodies. The indicated cell lines were treated with the stapled mutant peptide. (E) Immunoblots of cell lysates blotted with the indicated antibodies. […]
as §1

[2] = biological target: T2, cellular p110α-p85 interaction (Homo sapiens, UniProt P42336, E545K); test: Co-IP from treated cells, cellular p110α-p85 interaction; format: cell-based
T2 construct: tag the endogenous WT or mutant p110α with 3×FLAG at their C termini in DLD1 cells; endogenous in cells; host or cells: DLD1 p110α E545K 3×FLAG knock-in cells
T2 sequence (P42336 whole entry E545K): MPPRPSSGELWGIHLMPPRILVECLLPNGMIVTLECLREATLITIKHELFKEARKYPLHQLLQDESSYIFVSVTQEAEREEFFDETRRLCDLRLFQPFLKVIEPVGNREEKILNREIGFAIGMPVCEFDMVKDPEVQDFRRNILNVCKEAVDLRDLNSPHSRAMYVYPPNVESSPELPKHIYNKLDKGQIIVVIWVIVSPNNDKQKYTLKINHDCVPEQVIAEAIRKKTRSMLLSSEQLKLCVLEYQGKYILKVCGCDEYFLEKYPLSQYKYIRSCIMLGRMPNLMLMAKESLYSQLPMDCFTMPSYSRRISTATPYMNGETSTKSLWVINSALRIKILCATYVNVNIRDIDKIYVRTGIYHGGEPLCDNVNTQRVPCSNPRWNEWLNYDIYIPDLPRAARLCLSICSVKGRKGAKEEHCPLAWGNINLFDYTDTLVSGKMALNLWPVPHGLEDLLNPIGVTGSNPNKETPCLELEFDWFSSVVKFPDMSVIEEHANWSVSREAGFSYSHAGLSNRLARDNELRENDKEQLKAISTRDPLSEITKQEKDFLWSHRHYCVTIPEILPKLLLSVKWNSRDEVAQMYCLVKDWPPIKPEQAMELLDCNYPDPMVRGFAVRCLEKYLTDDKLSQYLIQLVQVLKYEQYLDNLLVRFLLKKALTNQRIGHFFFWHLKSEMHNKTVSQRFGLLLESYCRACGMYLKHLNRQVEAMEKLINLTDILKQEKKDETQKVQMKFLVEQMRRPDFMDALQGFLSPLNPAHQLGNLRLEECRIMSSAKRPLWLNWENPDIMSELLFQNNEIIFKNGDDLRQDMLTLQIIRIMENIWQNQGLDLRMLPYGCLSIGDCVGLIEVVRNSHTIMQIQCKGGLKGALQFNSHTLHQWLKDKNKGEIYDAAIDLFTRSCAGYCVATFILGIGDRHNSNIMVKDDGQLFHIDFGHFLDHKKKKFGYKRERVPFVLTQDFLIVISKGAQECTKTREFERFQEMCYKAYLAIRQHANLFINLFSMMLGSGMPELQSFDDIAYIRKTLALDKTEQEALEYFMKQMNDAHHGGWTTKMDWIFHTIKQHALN
T2 sequence (P27986 whole entry partner): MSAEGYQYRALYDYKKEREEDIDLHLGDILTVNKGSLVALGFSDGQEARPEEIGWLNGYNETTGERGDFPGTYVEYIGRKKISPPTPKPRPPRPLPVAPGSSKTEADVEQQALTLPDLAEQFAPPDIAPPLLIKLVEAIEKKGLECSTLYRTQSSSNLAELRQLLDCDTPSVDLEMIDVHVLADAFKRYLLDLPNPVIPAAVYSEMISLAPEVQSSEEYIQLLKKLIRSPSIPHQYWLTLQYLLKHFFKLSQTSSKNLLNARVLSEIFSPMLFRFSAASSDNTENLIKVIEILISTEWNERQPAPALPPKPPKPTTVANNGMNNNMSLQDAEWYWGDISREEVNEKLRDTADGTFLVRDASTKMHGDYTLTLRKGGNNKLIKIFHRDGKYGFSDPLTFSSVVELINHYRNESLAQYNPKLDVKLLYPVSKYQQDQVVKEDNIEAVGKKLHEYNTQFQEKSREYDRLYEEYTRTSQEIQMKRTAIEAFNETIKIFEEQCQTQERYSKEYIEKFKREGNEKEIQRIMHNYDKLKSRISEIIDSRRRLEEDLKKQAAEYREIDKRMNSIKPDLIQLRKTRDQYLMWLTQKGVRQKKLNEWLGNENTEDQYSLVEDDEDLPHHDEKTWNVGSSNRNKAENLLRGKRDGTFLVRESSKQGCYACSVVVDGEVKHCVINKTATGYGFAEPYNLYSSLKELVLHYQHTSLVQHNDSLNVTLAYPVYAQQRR
Method: as §2, §1

p110α = test: Immunoblot of treated cell lines, p110α protein level; format: cell-based, human
Method: as §2, §1

[3] = biological target: T3, protein interaction between p110α Q546P and IRS1 in Vaco481 CRC cells (Homo sapiens, UniProt P35568); test: Co-IP (anti-p110α) from Vaco481 CRC cells treated with stapled mutant peptide; format: cell-based
T3 construct: endogenous in cells; host or cells: Vaco481 CRC cells
T3 sequence (P35568 1-1242): T1 sequence (P35568 1-1242)
Method: as §2, §1

- inhibition of the interaction between IRS1 and DABD p110α E545K [1]: inhibited
- cellular p110α-p85 interaction [2]: did not interfere
- disruption of protein interaction between p110α Q546P and IRS1 [3]: disrupted
Substance: H2N-SEITKQEK-D^549-FLW-S^553-HRHYC-COOH [stapled mutant peptide]
- IRS1 phosphorylation (IRS1 phosphorylation): did not interfere
- protein levels of p110α (p110α): slightly reduce

— patent publication US20140005119A1, “COMPOSITIONS AND METHODS FOR INHIBITING THE ACTIVITY OF P110a MUTANT PROTEINS” (Case Western Reserve University, priority 2012, published 2014)
